Key:
FBXW2 [1] = molecular target: FBXW2 (UniProt Q9UKT8); assay: co-transfection, HA IP, immunoblot; conditions: reference: wild type; sites S552
FBXW2 [2] = molecular target: FBXW2 (UniProt Q9UKT8); assay: IP with FBXW2 antibody, immunoblot; conditions: reference: wild type; sites S552

β-catenin (from UniProt P35222) S552A
binding against the reference (FBXW2 [1]): lost | binding against the reference (FBXW2 [2]): lost

Source: article PMC6437151
